Results taken from patent US12427188B2, “Pyocyanine demethylases and related phenazine degrading agents compositions, methods and systems for interfering with viability of bacteria” (priority 2020, dated 2025).

Experiments:
[1] = tested on: Pseudomonas aeruginosa aggregate biofilms; conditions: previous experiments, succinate-minimal medium, 27 hours; cited from earlier work
[2] = Protein yield of PodA variants purified from inclusion bodies of overexpression culture
Experimental: Protein overproduction and purification of soluble and inclusion body fractions. Plasmids coding for proteins of interest were transformed into E. coli BL21 […]. […]. Cultures were grown at 37° C. with shaking to an optical density of 0.4 (OD600 nm) and plasmid expression was induced with IPTG (50 μM) and shaken overnight at 16° C. Cells were harvested by centrifugation at 5,000×g for 10 min in a Beckman Coulter Avanti J-20 XOI refrigerated centrifuge using a JLA-8.1000 rotor at 4° C. Cell pellets were stored at −80° C. until used.
For purification of PodA from inclusion bodies, the pellets remaining following lysis and centrifugation at 40,000×g were resuspended in 20 mL of detergent buffer [50 mM HEPES (pH 7.5) and 1% Triton-X (v/v)] using a Bio-gen PRO200 cell homogenizer (PRO Scientific). Sample was spun for 15 min at 40,000×g at 4° C. in a Beckman Coulter Avanti centrifuge with a JA-25.50 rotor. Supernatant was discarded and the remaining cell pellet was resuspended in 5 mL of buffer [50 mM HEPES (pH 7.5), 500 mM NaCl] using a cell homogenizer, supplemented with lysozyme (200 μg mL^−1), and incubated for 10 min. Volume was increased to 20 mL with HEPES (50 mM, pH 7) and sample was spun for 40,000×g at 4° C. for 15 min. Supernatant was discarded and pellet was homogenized in 10 mL of denaturing buffer 50 mM HEPES (pH 7.5), 500 mM NaCl, and 8M urea) and incubating rocking overnight. The sample was spun at for 40,000×g at 25° C. for 30 min and supernatant was incubated with 1 mL HisPur Ni-NTA resin (Thermo Fisher Scientific) on a rocking platform for 10 min. Beads were allowed to settle without shaking, supernatant was discarded, and resin was pipetted into glass gravity columns. Resin was washed with 15 mL of denaturing buffer, followed by an elution with denaturing buffer supplemented with imidazole (500 mM). Fractions were analyzed by SDS-PAGE and those containing protein were combined into SnakeSkin 3.5 K MWCO dialysis tubing (Thermo Fisher Scientific). Urea was slowly dialyzed out in HEPES (50 mM, pH 7.5) and NaCl (500 mM) by lowing urea concentrations by 1 M increments. Each step was dialyzed at RT for 30 min. Protein was dialyzed in HEPES (50 mM, pH 7.5), NaCl (500 mM), and imidazole (20 mM) overnight at 4° C. The following day, protein was cleaved for 3 h at 25° C. with TEV protease (1:50 mg:mg ratio of TEV to PodA). The sample was applied to a HisPur gravity column and cleaved protein in the flow thru was confirmed by SDS-PAGE. Cleaved PodA protein was then dialyzed for storage for 3 h at 4° C. in HEPES (50 mM pH 7.5), NaCl (250 mM) and finally in HEPES (50 mM, pH 7.5), NaCl (100 mM), and glycerol (20%, v/v). Protein concentration was established on a NanoDrop™ using the extinction coefficient and MW of each protein. Protein was drop frozen in LN2 and stored at −80° C. until use.

Pseudomonas aeruginosa = assay: Crystal violet biofilm assay; format: cell-based; conditions: 24 h incubation, protein added from the beginning
Experimental: Crystal violet assay. Pseudomonas aeruginosa grown overnight in LB were inoculated (1.5%, v/v) and grown for 24 h at 37° C. in 96-well round bottom plates in minimal medium (100 μL) with arginine (40 mM) as the sole carbon source. PodA was added with cells simultaneously and was present during growth and biofilm development. Planktonic cells were removed and attached cells were quantified with crystal violet staining (125 μL. 0.1% w/v), followed by washes with water and de-staining with an acetic acid (30%, v/v) mixture in water. Crystal violet was measured using a SpectraMax® M3 Microplate Reader (Molecular Devices) at an absorbance of 550 nm. Details of procedure were published previously (28)[43].

[3] = Continuous spectrophotometric PYO demethylation assay (specific activity and kinetics of PodA); format: biochemical
Experimental: Specific activity and kinetics of PodA. To determine specific activity and kinetic parameters of PodA for PYO, a continuous spectrophotometric assay monitoring the absorbance of PYO (690 nm) was utilized. Briefly, assays were performed at 25° C. in 100 μL reaction volumes in 96-well plates and reactions were monitored at 690 nm over 10 min. Reaction mixtures contained Phosphate buffer (50 mM, pH 6.0), ethylene glycol (1%, v/v), protein (3 μM) and substrate (for specific activity, 100 μM, for kinetics, varying). Data were acquired using the SpectraMax® M3 Microplate Reader (Molecular Devices) using the Soft Max Pro software every 10 s over 10 min. Path lengths for each well were calculated using Soft Max Pro endpoint readings and slopes were corrected for path lengths of 1 cm.
Specific activity was calculated from the slope of the linear range of (ΔOD690 min^−1) using Beer's Law (A=εcl) with a path length of 1 cm and the molar extinction coefficient of PYO (4,130 M^−1 cm^−1). Equation was solved for c, giving specific activity in nmol min^−1 mg^−1 of PodA. For kinetic parameters, graphs of initial velocity (μM s^−1) versus substrate concentration (μM) were plotted using Prism v8 (GraphPad). The Michaelis-Menten kinetics model was used to determine Km and Vmax. The turnover number (kcat) was determined using the following equation: Vmax=kcat[E], where [E] was the concentration of PodA added. All spectrophotometric assays mentioned above were completed thrice, each in technical triplicate with a representative data set shown. Error bars represent standard deviation as calculated by Prism v8 (GraphPad). Standard deviation for kcat and Kcat KM^−1 was calculated using standard formulas for propagation of error.

[4] = pH 6, 1% ethylene glycol, PodA 3 μM, substrate PYO

B1: WT PodA41-162: Truncated wild-type pyocyanin demethylase from Mycobacterium fortuitum (MFORT_14352) lacking N-terminal membrane helix, SEQ ID NO: 3 (protein)
chain: VTMTLDVKNDQVAKHDFGKPGMDVGDMDIFSDILSVDGKQVGYDGGACFFTNVTPDNPMTYCELTIHLDAGEIFARSLTPHTLAPFTMAITGGTGEYANSKGELTVSGVATPDEKYELKLTK
[1]
  aggregate development in ABBA: smaller aggregates in anoxic regions of the agar
[2]; per L of bacterial culture, typical
  protein yields: ~0.3 mg/L
[2]; purified from inclusion bodies, per L of E. coli overexpression culture
  Yield: 0.33 mg/L^−1
Pseudomonas aeruginosa
  biofilm attachment (crystal violet): biofilm attachment defect
[3]; buffers pH 5.5-10.0, PodA 3 μM, PYO 100 μM
  pH of optimal activity: 6
[3]; cystic fibrosis sputum range, 66 mM Na+, 15 mM K+
  Effect of salts (NaCl and KCl) on activity: did not inhibit or enhance
[3]; [4]
  Km: 372 µM
  catalytic efficiency: 4.74±0.24×10^2 M^−1 s^−1
  kcat: 0.176 ± 0.003 s⁻¹
[3]; pH 6, PodA 3 μM, PYO 100 μM
  Effect of slight increase in viscosity (ethylene glycol or glycerol 1% v/v) on activity: enhanced
[3]; protein from soluble fraction
  catalytic efficiency: 1.05±0.093×10^2 M^−1 s^−1
[3]; protein purified from inclusion bodies, denatured and refolded
  catalytic efficiency: 1.14±0.25×10^2 M^−1 s^−1
